Measured values from paper PMC9351520.

What was measured:
[1] = target: fluorescently Ct-labeled six-residue peptide bearing Nt-Glu; assay: fluorescence polarisation
[2] = target: fluorescently Ct-labeled six-residue peptide bearing Nt-Asp; assay: fluorescence polarisation

Substance: klAte1, the Ate1 arginyl-tRNA-protein transferase (R-transferase) of Kluyveromyces lactis (enzyme)
- Kd [1]: > 100 µM
- Kd [2]: > 100 µM
